These are literature values, as cited in patent US9700485B2, “Delamination resistant pharmaceutical glass containers containing active pharmaceutical ingredients” (Corning Incorporated, priority 2013, dated 2017).

Where two headings read alike, the source gives them in different places.

For data set [1] the following is noted: 300 RPM, room temperature, 72 hours; cited from earlier work.
For data set [2] the following is noted: cited from earlier work.
For data set [3] the following is noted: lyophilized, 4° C., 40° C. and 50° C. up to 4 months; cited from earlier work.
For data set [4] the following is noted: pre and post lyophilized, 0.1 mg/mL; cited from earlier work.
For data set [5] the following is noted: cited from earlier work; for particulate counts =10 μm/mL / particulate counts =25 μm/mL / particulate counts =50 μm/mL: HIAC.
The mark [6] stands for this setting: After Lyophilization, reconstituted to 5 mg/mL.
Where [7] appears, read: Before Lyophilization, diluted to 5 mg/mL.

As to “IMC-A12: fully human IgG1/λ monoclonal antibody binding insulin-like growth factor-I receptor (IGF-IR)”, the “percent loss and percent monomer as a function of pH” value in data set [1] was “Percent loss was least and percent monomer was highest between pH 6.0-7.0”. In addition, in data set [2] (−20° C. and −70° C. up to 3 months, PBS and Citrate formulations), the percent monomer result was “The percent monomer did not change with time in either formulation”. Besides, in data set [2] (−20° C. and −70° C., three weeks), the “percent monomer as a function of pH” value was “The pH did not have significant effect on percent monomer”. The “rate of monomer change” value in data set [3] is “smallest at lowest IMC-A12 concentration and at highest trehalose to IMC-A12 ratio”. The “secondary structure (circular dichorism)” value in data set [4] is on record as “Secondary structure of IMC-A12 was not altered because of lyophilization”. Besides, in data set [5] (setting [6]), the “particulate counts =10 μm/mL” value is 38.67 mL⁻¹, the “particulate counts =25 μm/mL” value is 0.33 mL⁻¹ and the “particulate counts =50 μm/mL” value was 0.00 mL⁻¹. Moreover, in data set [5] (setting [7]), the “particulate counts =10 μm/mL” value is 26.33 mL⁻¹, the “particulate counts =25 μm/mL” value was 1.67 mL⁻¹ and the “particulate counts =50 μm/mL” value is 0.00 mL⁻¹. The “particulate counts (HIAC)” value in data set [5] (before and after lyophilization, 5 mg/mL) is listed as “The particulate counts did not changed significantly”.
